We go through four molecules from paper doi:10.1101/2020.03.06.980961.

Assay in all cases: fluorescence anisotropy
The target in data set [1] is T1, TFB2M-WT (human, UniProt Q9H5Q4 20-396).
T1 sequence: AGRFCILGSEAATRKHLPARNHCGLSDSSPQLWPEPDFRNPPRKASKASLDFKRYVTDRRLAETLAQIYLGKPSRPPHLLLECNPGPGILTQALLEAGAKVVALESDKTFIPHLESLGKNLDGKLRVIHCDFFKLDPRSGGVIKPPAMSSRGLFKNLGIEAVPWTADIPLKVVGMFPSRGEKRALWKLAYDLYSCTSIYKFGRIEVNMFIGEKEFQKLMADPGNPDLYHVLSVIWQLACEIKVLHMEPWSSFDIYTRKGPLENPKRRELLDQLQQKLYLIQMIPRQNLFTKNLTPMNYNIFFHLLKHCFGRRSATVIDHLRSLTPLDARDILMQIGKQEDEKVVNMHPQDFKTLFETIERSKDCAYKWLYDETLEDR

Data set [2] deals with T2, Mtf1-Δ20 (Saccharomyces cerevisiae, UniProt P14908 1-321).
T2 sequence: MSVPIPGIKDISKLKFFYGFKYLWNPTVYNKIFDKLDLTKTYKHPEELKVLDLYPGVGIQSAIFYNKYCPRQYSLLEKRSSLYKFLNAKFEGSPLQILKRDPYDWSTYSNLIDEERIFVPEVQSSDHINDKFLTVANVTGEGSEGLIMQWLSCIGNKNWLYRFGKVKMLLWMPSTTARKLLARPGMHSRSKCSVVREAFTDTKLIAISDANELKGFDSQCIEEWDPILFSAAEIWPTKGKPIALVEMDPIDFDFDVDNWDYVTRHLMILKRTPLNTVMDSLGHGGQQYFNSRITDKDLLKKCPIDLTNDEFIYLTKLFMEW

Data set [3] has as its target T2, Mtf1-Δ20. This is another data set of the same source.
Data set [4] deals with T3, TFB2M-Δ3 (human, UniProt Q9H5Q4 20-393).
T3 sequence: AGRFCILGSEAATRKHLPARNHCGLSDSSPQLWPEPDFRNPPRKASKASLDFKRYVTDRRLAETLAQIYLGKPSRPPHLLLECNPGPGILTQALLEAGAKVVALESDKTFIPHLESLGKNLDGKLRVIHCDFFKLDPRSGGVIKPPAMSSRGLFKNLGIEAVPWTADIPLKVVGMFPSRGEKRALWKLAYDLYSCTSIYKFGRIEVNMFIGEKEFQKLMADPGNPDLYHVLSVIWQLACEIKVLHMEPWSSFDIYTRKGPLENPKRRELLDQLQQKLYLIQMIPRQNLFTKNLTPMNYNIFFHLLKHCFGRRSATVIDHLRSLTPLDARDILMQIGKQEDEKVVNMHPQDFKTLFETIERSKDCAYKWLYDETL

In data set [5] the target is T4, TFB2M-Δ13 (human, UniProt Q9H5Q4 20-383).
T4 sequence: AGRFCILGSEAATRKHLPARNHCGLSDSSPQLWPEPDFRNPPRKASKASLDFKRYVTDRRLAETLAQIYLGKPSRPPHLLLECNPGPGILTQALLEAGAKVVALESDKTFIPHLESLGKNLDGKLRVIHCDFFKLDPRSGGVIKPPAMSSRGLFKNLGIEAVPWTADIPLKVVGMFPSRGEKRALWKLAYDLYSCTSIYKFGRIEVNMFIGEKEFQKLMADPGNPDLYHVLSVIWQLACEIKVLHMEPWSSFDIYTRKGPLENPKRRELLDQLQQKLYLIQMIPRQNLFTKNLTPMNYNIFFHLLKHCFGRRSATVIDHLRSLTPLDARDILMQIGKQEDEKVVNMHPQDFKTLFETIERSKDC

Data set [6] concerns the target T1, TFB2M-WT. This is another data set of the same source.
For data set [7], the target named is T1, TFB2M-WT. The source holds these as a separate data set.
In data set [8] the target is T1, TFB2M-WT. The source holds these as a separate data set.

Like-named read-outs stand apart in the source and are kept apart here.

B1: 15S NT (ssDNA)
DNA: ATATAAGTAATA
With B1, the Kd in data set [1] is 130 nM; in data set [2], approximately 870 nM; in data set [3], 51 ± 2.8 nM.

B2: LSP NT (ssDNA)
DNA: TACCGCCAAAAG
In the case of B2, the Kd turned out to be 92 ± 3.3 nM in data set [4], 46 ± 5.2 nM in data set [5] and 169 ± 18 nM in data set [6].

B3: LSP duplex (dsDNA)
DNA 1: TACCGCCAAAAG
DNA 2: CTTTTGGCGGTA
In the case of B3, the binding signal in data set [7] was ~3 fold higher affinity than LSP NT.

B4: dT12 (ssDNA)
DNA: TTTTTTTTTTTT
As for B4, the binding result in data set [8] was “binds”.

One may read the Kd as a measure of binding affinity in units of concentration.
